We go through 14 substances from article PMC7450122.

Bounds are passed on as bounds.

In the assay the target is GST-p65, purified recombinant (UniProt Q04206). Description: alanine-scanning peptide array probed with GST-p65, anti-GST immunoblot. For orientation: In western blotting, separated proteins are transferred to a membrane and probed.
Chain of UniProt Q04206 (Q04206 whole entry, looked up): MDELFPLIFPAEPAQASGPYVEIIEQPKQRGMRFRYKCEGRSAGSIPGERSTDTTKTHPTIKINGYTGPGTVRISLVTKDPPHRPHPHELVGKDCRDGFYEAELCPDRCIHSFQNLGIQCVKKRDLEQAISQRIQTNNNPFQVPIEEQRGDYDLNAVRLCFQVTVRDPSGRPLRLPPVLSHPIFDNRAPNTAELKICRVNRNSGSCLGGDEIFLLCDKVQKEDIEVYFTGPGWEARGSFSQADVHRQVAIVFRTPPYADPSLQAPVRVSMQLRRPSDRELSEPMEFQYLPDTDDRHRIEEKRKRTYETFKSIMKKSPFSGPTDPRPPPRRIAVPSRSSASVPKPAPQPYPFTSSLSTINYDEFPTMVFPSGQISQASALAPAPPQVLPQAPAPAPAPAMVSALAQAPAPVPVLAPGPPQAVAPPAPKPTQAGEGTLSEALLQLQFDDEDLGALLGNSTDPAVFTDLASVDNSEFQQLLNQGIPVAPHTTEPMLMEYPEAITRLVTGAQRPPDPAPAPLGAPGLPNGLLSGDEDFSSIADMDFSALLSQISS

Turning to USP7 peptide A23 (629-646, …) K633A, the percent of parent (% of parent peptide) was below 60.
With USP7 peptide A23 (629-646, …) R634A the figure was below 60; with USP7 peptide C13 (829-846, …) D833A, below 60; with USP7 peptide C13 (829-846, …) F839A, below 60.
Then USP7 peptide C13 (829-846, …) M835A, with below 60; and USP7 peptide C13 (829-846, …) Y845A, with below 60; and USP7 peptide C20 (857-874, …) Q872A, with below 60.
With USP7 peptide C25 (877-894, …) D887A the figure was below 60; with USP7 peptide C25 (877-894, …) F888A, below 60.
In the case of USP7 peptide C25 (877-894, …) F894A, the percent of parent (% of parent peptide) is below 60.
Then USP7 peptide C30 (897-914, …) E905A, with below 60.
Then USP7 peptide C30 (897-914, …) F903A, with below 60.
Then USP7 peptide C30 (897-914, …) K914A, with below 60.
For USP7 peptide C30 (897-914, …) L899A, the percent of parent (% of parent peptide) was below 60.
